System: peptide library, one residue held at a place counted from the S/T acceptor
Experiment: relative phosphorylation of the sub-library (ratio to the mean residue at this position); higher = residue favoured
How it was run: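 Relative sub-library phosphorylation is a ratio to the mean residue at the same position. Purified recombinant kinases were incubated under kinase-specific conditions with biotinylated degenerate peptide sub-libraries, each fixing one residue at one position around a central Ser/Thr, using 50 μM peptide and 50 μM ATP spiked with γ-32P-ATP for 90 min. Spots captured on streptavidin membranes were phosphorimaged and quantified by densitometry.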

Sequence of STK33, construct: Full length, human (Q9BYT3 whole entry, looked up): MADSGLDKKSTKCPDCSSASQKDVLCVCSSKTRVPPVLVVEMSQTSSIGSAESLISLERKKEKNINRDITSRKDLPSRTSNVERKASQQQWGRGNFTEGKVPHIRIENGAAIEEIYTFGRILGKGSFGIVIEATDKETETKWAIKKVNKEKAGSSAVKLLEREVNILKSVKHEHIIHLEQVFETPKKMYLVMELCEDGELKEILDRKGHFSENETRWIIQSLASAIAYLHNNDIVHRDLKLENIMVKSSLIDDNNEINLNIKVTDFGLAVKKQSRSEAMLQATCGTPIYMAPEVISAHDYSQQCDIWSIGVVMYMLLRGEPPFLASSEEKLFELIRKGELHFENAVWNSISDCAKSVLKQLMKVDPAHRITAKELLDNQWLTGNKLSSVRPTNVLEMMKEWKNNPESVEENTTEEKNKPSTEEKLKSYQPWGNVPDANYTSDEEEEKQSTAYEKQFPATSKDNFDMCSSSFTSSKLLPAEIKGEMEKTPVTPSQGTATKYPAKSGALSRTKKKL
Sequence of CDK7, construct: Full length, human (P50613 whole entry, looked up): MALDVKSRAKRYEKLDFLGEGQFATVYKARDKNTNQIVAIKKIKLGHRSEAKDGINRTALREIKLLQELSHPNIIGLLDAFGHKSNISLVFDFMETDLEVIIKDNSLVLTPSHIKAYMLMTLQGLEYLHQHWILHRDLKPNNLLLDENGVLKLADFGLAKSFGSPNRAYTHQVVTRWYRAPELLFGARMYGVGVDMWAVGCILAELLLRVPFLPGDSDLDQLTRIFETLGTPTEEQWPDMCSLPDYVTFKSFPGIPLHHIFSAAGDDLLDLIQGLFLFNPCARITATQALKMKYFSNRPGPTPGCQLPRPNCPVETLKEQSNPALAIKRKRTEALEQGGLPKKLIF

STK33, construct: Full length, human (from UniProt Q9BYT3)
relative phosphorylation
Settings	at +1	at +2	at +3	at +4	at -1	at -2	at -3	at -4	at -5
A fixed	0.409	0.63	0.576	0.702	0.899	0.84	0.905	1.03	1.17
D fixed	0.151	0.26	0.433	0.754	0.393	0.433	0.344	0.723	0.731
E fixed	0.158	0.243	0.451	0.951	0.572	0.411	0.355	0.681	0.709
F fixed	1.25	1.85	1.22	0.842	0.653	1.95	1.53	0.855	0.849
G fixed	0.327	0.41	0.743	1.03	0.676	0.987	1.08	1.23	1.43
H fixed	0.745	1.82	1.31	1.12	0.933	1.39	1.07	1.19	1.25
I fixed	1.33	0.956	0.804	0.992	0.574	0.549	0.683	0.661	0.6
K fixed	2.18	0.815	2.01	1.41	2.59	0.826	0.921	1.39	1.72
L fixed	0.893	0.654	0.657	0.801	0.812	0.865	1.62	0.77	0.603
M fixed	1.36	0.871	0.756	0.914	1.14	0.99	1.42	0.836	0.653
N fixed	0.578	0.59	0.655	0.917	0.978	1.32	0.724	1.02	1.11
P fixed	0.217	0.394	0.564	1.38	0.306	0.43	0.915	0.924	1.12
Q fixed	1.23	0.53	0.661	0.994	1.33	0.786	0.836	0.823	0.856
R fixed	3.13	1.16	2.98	1.28	2.9	1.34	1.66	1.42	1.5
V fixed	1.29	0.796	0.721	0.835	0.747	0.568	0.555	0.585	0.613
W fixed	0.768	1.8	1.23	1.21	0.557	1.73	1.23	1.98	1.22
Y fixed	0.988	3.23	1.24	0.882	0.943	1.59	1.16	0.886	0.869
pThr fixed	0.683	0.937	1.23	1.3	0.439	0.702	1.14	1.05	1.24
pTyr fixed	0.677	11.7	1.91	1.8	0.918	0.887	1.02	0.779	1.13

CDK7, construct: Full length, human (from UniProt P50613)
relative phosphorylation
Settings	at +1	at +2	at +3	at +4	at -1	at -2	at -3	at -4	at -5
A fixed	0.369	1.2	1.11	0.982	0.638	1.14	1.06	1.05	1.12
D fixed	0.303	0.747	0.502	0.558	0.367	0.385	0.671	0.621	0.658
E fixed	0.274	0.589	0.433	0.506	0.276	0.408	0.598	0.586	0.518
F fixed	0.271	0.709	1.05	1	0.977	0.484	0.676	0.812	1.01
G fixed	0.981	1.34	1.04	1.22	0.999	0.965	1.44	1.24	1.12
H fixed	0.317	1.06	1.02	1.24	0.9	0.586	0.936	1.16	1.36
I fixed	0.339	0.81	0.854	0.956	0.385	1.28	0.647	0.734	0.728
K fixed	0.288	1.13	0.904	0.814	1.27	0.802	1.26	1.25	1.3
L fixed	0.33	0.774	1.05	0.932	1.04	1.18	0.608	0.81	0.863
M fixed	0.333	0.871	1.02	1.04	1.09	0.978	0.793	0.975	0.878
N fixed	0.449	1.13	0.826	0.937	0.602	0.818	0.949	1.11	0.986
P fixed	11.1	1.57	1.34	1.18	1.02	3.51	2	1.37	1.07
Q fixed	0.354	1.04	0.831	1.07	0.919	0.781	1.06	1.03	0.845
R fixed	0.294	1.36	0.624	0.727	1.56	1.14	1.87	1.31	1.22
V fixed	0.417	0.9	1.04	0.878	0.62	1.3	0.842	0.681	0.693
W fixed	0.304	0.802	1.32	1.47	3.04	0.639	0.774	1.16	1.49
Y fixed	0.283	0.982	2.04	1.48	1.29	0.605	0.825	1.1	1.14
pThr fixed	0.469	0.566	0.573	0.503	0.352	0.645	0.713	0.697	0.612
pTyr fixed	0.357	0.583	0.641	0.713	0.475	0.37	0.568	0.63	0.522

— the supplement of paper PMC9876800
